Test results from patent publication US20220220224A1 (Hoffmann-La Roche, published 2022).

How the values were obtained:
[1] = molecular target: T1, human FolR2 on transfected HEK cells (human, UniProt P14207 17-230); assay: flow cytometry on transfected HEK cells
T1 construct: whole, on cells

[2] = molecular target: T2, human FolR1 expressed on cells (HeLa, SKOV3, HT-29, transfected HEK cells) (human, UniProt P15328 25-234); assay: flow cytometry on transfected HEK cells
T2 construct: whole, on cells; also called FolR1 on HeLa cells; human FolR1 on cells
T2 sequence (P15328 25-234): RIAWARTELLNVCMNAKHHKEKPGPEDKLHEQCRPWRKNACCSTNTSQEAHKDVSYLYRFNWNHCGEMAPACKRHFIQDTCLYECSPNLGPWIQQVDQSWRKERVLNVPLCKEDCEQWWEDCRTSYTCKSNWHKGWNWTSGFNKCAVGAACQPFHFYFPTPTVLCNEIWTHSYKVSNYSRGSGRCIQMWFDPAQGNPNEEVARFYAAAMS

[3] = molecular target: T3, recombinant biotinylated monomeric Fc fusion of cynomolgus Folate Receptor 1 (cy FolR1 ECD-AcTev-Fcknob-Avi … (cynomolgus, UniProt P0DOX5 223-449 = IgG part, biotin on the C-terminal Avi tag)); assay: SPR Biacore, affinity (monovalent), antibody captured via anti-Fab
T3 construct: also called cyFolR1-Fc; cyno FolR1
Description: (§1) The affinity of the interaction between the anti-FolR1 IgG or T cell bispecifics and the recombinant folate receptors was determined as described below (Table 26).
(§2) For affinity measurement, direct coupling of around 12000 resonance units (RU) of the anti-human Fab specific antibody (Fab capture kit, GE Healthcare) was performed on a CM5 chip at pH 5.0 using the standard amine coupling kit (GE Healthcare). Anti-FolR1 IgG or T cell bispecifics were captured at 20 nM with a flow rate of 10 μl/min for 40 sec, the reference flow cell was left without capture. […] The dissociation phase was monitored for 300 s and triggered by switching from the sample solution to HBS-EP. The chip surface was regenerated after every cycle using a double injection of 60 sec 10 mM Glycine-HCl pH 1.5. Bulk refractive index differences were corrected for by subtracting the response obtained on the reference flow cell 1. The affinity constants for the interactions were derived from the rate constants by fitting to a 1:1 Langmuir binding using the Bia Evaluation software (GE Healthcare).

[4] = molecular target: T4, recombinant biotinylated monomeric Fc fusion of murine Folate Receptor 1 (mu FolR1 ECD-AcTev-Fcknob-Avitag … (murine, UniProt P0DOX5 223-449 = IgG part, biotin on the C-terminal Avi tag)); assay: as above
T4 construct: also called muFolR1-Fc; murine FolR1
Description: as §1, §2

[5] = molecular target: T5, recombinant biotinylated monomeric Fc fusion of human Folate Receptor 1 (huFolR1 ECD-AcTev-Fcknob-Avi tag … (human, UniProt P0DOX5 223-449 = IgG part, biotin on the C-terminal Avi tag)); assay: as above
T5 construct: also called huFolR1-Fc; human FolR1-Fc
Description: as §1, §2

[6] = molecular target: T3, recombinant biotinylated monomeric Fc …; assay: SPR Biacore, avidity (bivalent, apparent KD), antigen-Fc on SA chip
Description: (§3) Binding of FolR1 binders as IgG or in the T-cell bispecific format to different recombinant folate receptors (human FolR1, 2 and 3, murine FolR1 and cynomolgus FolR1; all as Fc fusions) was assessed by surface plasmon resonance (SPR). All SPR experiments were performed on a Biacore T200 at 25° C. with HBS-EP as running buffer (0.01 M HEPES pH 7.4, 0.15 M NaCl, 3 mM EDTA, 0.005% Surfactant P20, Biacore, Freiburg/Germany).
(§4) Recombinant biotinylated monomeric Fc fusions of human, cynomolgus and murine Folate Receptor 1 (FolR1-Fc) were directly coupled on a SA chip using the standard coupling instruction (Biacore, Freiburg/Germany). The immobilization level was about 300-400 RU. The anti-FolR1 IgGs or T cell bispecifics were passed at a concentration range from 2.1 to 500 nM with a flow of 30 μL/minutes through the flow cells over 180 seconds. The dissociation was monitored for 600 seconds. Bulk refractive index differences were corrected for by subtracting the response obtained on reference flow cell immobilized with recombinant biotinylated IL2 receptor Fc fusion. […] The binding curves resulting from the bivalent binding of the IgGs or T cell bispecifics were approximated to a 1:1 Langmuir binding and fitted with that model (which is not correct, but gives an idea of the avidity). The apparent avidity constants for the interactions were derived from the rate constants of the fitting using the Bia Evaluation software (GE Healthcare).

[7] = molecular target: T4, recombinant biotinylated monomeric Fc …; assay: as above
Description: as §3, §4

[8] = molecular target: T5, recombinant biotinylated monomeric Fc …; assay: as above
Description: as §3, §4

[9] = molecular target: T6, recombinant biotinylated monomeric Fc fusion of human Folate Receptor 2 (hu FolR2 ECD-AcTev-Fcknob-Avi tag … (human, UniProt P0DOX5 223-449 = IgG part, biotin on the C-terminal Avi tag)); assay: SPR Biacore, single injection on immobilized antigen-Fc
T6 construct: also called FolR2-Fc
Summary of the method: (§5)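 Biacore T200 at 25 °C in HBS-EP (HEPES pH 7.4). Biotinylated FolR-Fc fusions captured on SA chip at about 300-400 RU. IgGs injected once at 500 nM for 60 s to assess cross-reactivity and specificity.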

[10] = molecular target: T7, recombinant biotinylated monomeric Fc fusion of human Folate Receptor 3 (hu FolR3 ECD-AcTev-Fcknob-Avi tag … (human, UniProt P0DOX5 223-449 = IgG part, biotin on the C-terminal Avi tag)); assay: as above
T7 construct: also called FolR3-Fc
Summary of the method: as §5

T1 sequence (P14207 17-230): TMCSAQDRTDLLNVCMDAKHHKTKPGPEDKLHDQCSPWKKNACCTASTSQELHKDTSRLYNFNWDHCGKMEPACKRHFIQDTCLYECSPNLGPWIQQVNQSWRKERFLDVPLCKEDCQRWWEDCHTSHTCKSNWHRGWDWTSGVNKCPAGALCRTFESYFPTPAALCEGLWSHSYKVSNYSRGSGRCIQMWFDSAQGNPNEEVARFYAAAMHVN

B1: 36F2 IgG (antibody, V domains shown)
VH: QVQLVQSGAEVKKPGASVKVSCKASGYTFTSYYMHWVRQAPGQGLEWMGIINPSGGSTSYAQKFQGRVTMTHDTSTSTVYMELSSLRSEDTAVYYCARSFFTGFHLDYWGQGTLVTVSS
VL: EIVLTQSPGTLSLSPGERATLSCRASQSVSSSYLAWYQQKPGQAPRLLIYGASSRATGIPDRFSGSGSGTDFTLTISRLEPEDFAVYYCQQYTNEHYYTFGQGTKVEIK
With B1 the binding result [1] was “no binding”, the binding result [2] was “binds” and the Kd [3] was 570 nM. It also gave a koff [3] of 0.0578 s⁻¹, a kon [3] of 102000 M⁻¹ s⁻¹ and a Kd [4] of 210 nM. The koff [4] was 0.0178 s⁻¹, the kon [4] was 83200 M⁻¹ s⁻¹ and the Kd [5] was 730 nM. For the same binder, the koff [5] was 0.0665 s⁻¹, the kon [5] was 91000 M⁻¹ s⁻¹ and the Kd [6] was 5.31 nM. It also gave a koff [6] of 0.016 s⁻¹, a kon [6] of 3.02e+06 M⁻¹ s⁻¹ and a Kd [7] of 1.63 nM. It also gave a koff [7] of 0.000603 s⁻¹, a kon [7] of 370000 M⁻¹ s⁻¹ and a Kd [8] of 5.74 nM. The koff [8] was 0.0151 s⁻¹, the kon [8] was 2.62e+06 M⁻¹ s⁻¹ and the binding result [9] was “no binding (tested: 500 nM)”. B1: no binding (tested: 500 nM) [10].
